This test deals with hCD40–BAFF-R_(His159-Tyr) chimera (human | mouse) (UniProt P25942). The test can be described thus: co-IP.

B1: TRAF2 (mouse, endogenous) (natural protein)
chain: MAAASVTSPGSLELLQPGFSKTLLGTRLEAKYLCSACKNILRRPFQAQCGHRYCSFCLTSILSSGPQNCAACVYEGLYEEGISILESSSAFPDNAARREVESLPAVCPNDGCTWKGTLKEYESCHEGLCPFLLTECPACKGLVRLSEKEHHTEQECPKRSLSCQHCRAPCSHVDLEVHYEVCPKFPLTCDGCGKKKIPRETFQDHVRACSKCRVLCRFHTVGCSEMVETENLQDHELQRLREHLALLLSSFLEAQASPGTLNQVGPELLQRCQILEQKIATFENIVCVLNREVERVAVTAEACSRQHRLDQDKIEALSNKVQQLERSIGLKDLAMADLEQKVSELEVSTYDGVFIWKISDFTRKRQEAVAGRTPAIFSPAFYTSRYGYKMCLRVYLNGDGTGRGTHLSLFFVVMKGPNDALLQWPFNQKVTLMLLDHNNREHVIDAFRPDVTSSSFQRPVSDMNIASGCPLFCPVSKMEAKNSYVRDDAIFIKAIVDLTGL
B1 returned a fold increase in recruitment against hCD40–BAFF-RWT (60 min) of 5 fold.

B2: TRAF3 (mouse, endogenous) (natural protein)
chain: MESSKKMDAAGTLQPNPPLKLQPDRGAGSVLVPEQGGYKEKFVKTVEDKYKCEKCRLVLCNPKQTECGHRFCESCMAALLSSSSPKCTACQESIIKDKVFKDNCCKREILALQVYCRNEGRGCAEQLTLGHLLVHLKNECQFEELPCLRADCKEKVLRKDLRDHVEKACKYREATCSHCKSQVPMIKLQKHEDTDCPCVVVSCPHKCSVQTLLRSELSAHLSECVNAPSTCSFKRYGCVFQGTNQQIKAHEASSAVQHVNLLKEWSNSLEKKVSLLQNESVEKNKSIQSLHNQICSFEIEIERQKEMLRNNESKILHLQRVIDSQAEKLKELDKEIRPFRQNWEEADSMKSSVESLQNRVTELESVDKSAGQAARNTGLLESQLSRHDQMLSVHDIRLADMDLRFQVLETASYNGVLIWKIRDYKRRKQEAVMGKTLSLYSQPFYTGYFGYKMCARVYLNGDGMGKGTHLSLFFVIMRGEYDALLPWPFKQKVTLMLMDQGSSRRHLGDAFKPDPNSSSFKKPTGEMNIASGCPVFVAQTVLENGTYIKDDTIFIKVIVDTSDLPDP
Regarding B2, the fold increase in recruitment against hCD40–BAFF-RWT (60 min) is 4 fold.
